Measured values published in patent publication US20180030151A1 (MOGAM INSTITUTE FOR BIOMEDICAL RESEARCH, published 2018).
Read-outs that look alike come from different tables or passages of the source.

Assays:
Assay in all cases: cell-based or functional assay
[1] = biological target: T1, recombinant human TFPI (tissue factor pathway inhibitor) (human, UniProt P10646 29-304)
[2] = biological target: T1, recombinant human TFPI (tissue factor …); remark: listed apart in the source
[3] = biological target: T1, recombinant human TFPI (tissue factor …); remark: listed apart in the source
[4] = biological target: T1, recombinant human TFPI (tissue factor …); remark: listed apart in the source
[5] = biological target: T1, recombinant human TFPI (tissue factor …); remark: listed apart in the source
[6] = biological target: T1, recombinant human TFPI (tissue factor …); remark: listed apart in the source
[7] = biological target: T1, recombinant human TFPI (tissue factor …); remark: listed apart in the source
[8] = biological target: T1, recombinant human TFPI (tissue factor …); remark: listed apart in the source
[9] = biological target: T1, recombinant human TFPI (tissue factor …); remark: listed apart in the source
[10] = biological target: T1, recombinant human TFPI (tissue factor …); remark: listed apart in the source

- FXa assay % of FXa alone, 2.5 nM Ab, 10 nM TFPI [1]: 8.9%
- FXa assay % of FXa alone, 5 nM Ab, 10 nM TFPI [1]: 63.1%
- FXa assay % of FXa alone, 10 nM Ab, 10 nM TFPI [1]: 85.3%
- FXa assay % of FXa alone, 20 nM Ab, 10 nM TFPI [1]: 88.5%
- FXa assay OD, 2.5 nM Ab, 10 nM TFPI [1]: 0.0715
- FXa assay OD, 5 nM Ab, 10 nM TFPI [1]: 0.509
- FXa assay OD, 10 nM Ab, 10 nM TFPI [1]: 0.688
- FXa assay OD, 20 nM Ab, 10 nM TFPI [1]: 0.714
- % of Normalized, TF/FVIIa/FX complex assay, Ab 1.56 nM [2]: 16%
- % of Normalized, TF/FVIIa/FX complex assay, Ab 3.13 nM [2]: 17.5%
- % of Normalized, TF/FVIIa/FX complex assay, Ab 6.25 nM [2]: 19.9%
- % of Normalized, TF/FVIIa/FX complex assay, Ab 12.5 nM [2]: 27.1%
- % of Normalized, TF/FVIIa/FX complex assay, Ab 25 nM [2]: 96.6%
- % of Normalized, TF/FVIIa/FX complex assay, Ab 50 nM [2]: 94.8%
- % of Normalized, TF/FVIIa/FX complex assay, Ab 100 nM [2]: 98%
- A405, TF/FVIIa/FX complex assay, Ab 1.56 nM [3]: 0.135
- A405, TF/FVIIa/FX complex assay, Ab 3.13 nM [3]: 0.16
- A405, TF/FVIIa/FX complex assay, Ab 6.25 nM [3]: 0.185
- A405, TF/FVIIa/FX complex assay, Ab 12.5 nM [3]: 0.29
- A405, TF/FVIIa/FX complex assay, Ab 25 nM [3]: 0.914
- A405, TF/FVIIa/FX complex assay, Ab 50 nM [3]: 0.938
- A405, TF/FVIIa/FX complex assay, Ab 100 nM [3]: 0.939
- A405, TF/FVIIa/FX complex assay, Ab 1.56 nM [4]: 0.041
- A405, TF/FVIIa/FX complex assay, Ab 3.13 nM [4]: 0.051
- A405, TF/FVIIa/FX complex assay, Ab 6.25 nM [4]: 0.071
- A405, TF/FVIIa/FX complex assay, Ab 12.5 nM [4]: 0.088
- A405, TF/FVIIa/FX complex assay, Ab 25 nM [4]: 0.371
- A405, TF/FVIIa/FX complex assay, Ab 50 nM [4]: 0.681
- A405, TF/FVIIa/FX complex assay, Ab 100 nM [4]: 0.846
- A405, TF/FVIIa/FX complex assay, Ab 1.56 nM [5]: 0.143
- A405, TF/FVIIa/FX complex assay, Ab 3.13 nM [5]: 0.152
- A405, TF/FVIIa/FX complex assay, Ab 6.25 nM [5]: 0.168
- A405, TF/FVIIa/FX complex assay, Ab 12.5 nM [5]: 0.228
- A405, TF/FVIIa/FX complex assay, Ab 25 nM [5]: 0.795
- A405, TF/FVIIa/FX complex assay, Ab 50 nM [5]: 0.947
- A405, TF/FVIIa/FX complex assay, Ab 100 nM [5]: 0.951
- % of Normalized, TF/FVIIa/FX complex assay (FX 5 nM), Ab 1.56 nM [6]: 6.2%
- % of Normalized, TF/FVIIa/FX complex assay (FX 5 nM), Ab 3.13 nM [6]: 5.9%
- % of Normalized, TF/FVIIa/FX complex assay (FX 5 nM), Ab 6.25 nM [6]: 6.9%
- % of Normalized, TF/FVIIa/FX complex assay (FX 5 nM), Ab 12.5 nM [6]: 9.7%
- % of Normalized, TF/FVIIa/FX complex assay (FX 5 nM), Ab 25 nM [6]: 26.6%
- % of Normalized, TF/FVIIa/FX complex assay (FX 5 nM), Ab 50 nM [6]: 80.5%
- % of Normalized, TF/FVIIa/FX complex assay (FX 5 nM), Ab 100 nM [6]: 100%
- % of Normalized, TF/FVIIa/FX complex assay, Ab 1.56 nM [7]: 15.6%
- % of Normalized, TF/FVIIa/FX complex assay, Ab 3.13 nM [7]: 16.5%
- % of Normalized, TF/FVIIa/FX complex assay, Ab 6.25 nM [7]: 18.2%
- % of Normalized, TF/FVIIa/FX complex assay, Ab 12.5 nM [7]: 24.8%
- % of Normalized, TF/FVIIa/FX complex assay, Ab 25 nM [7]: 86.5%
- % of Normalized, TF/FVIIa/FX complex assay, Ab 50 nM [7]: 103%
- % of Normalized, TF/FVIIa/FX complex assay, Ab 100 nM [7]: 104%
- FXa assay % of FXa alone, 2.5 nM Ab, 10 nM TFPI [8]: 8.4%
- FXa assay % of FXa alone, 5 nM Ab, 10 nM TFPI [8]: 40.8%
- FXa assay OD, 2.5 nM Ab, 10 nM TFPI [8]: 0.0605
- FXa assay OD, 5 nM Ab, 10 nM TFPI [8]: 0.293
- FXa assay OD, 10 nM Ab, 10 nM TFPI [8]: 0.605
- % of Normalized, TF/FVIIa/FX complex assay, Ab 1.56 nM [9]: 4.8%
- % of Normalized, TF/FVIIa/FX complex assay, Ab 3.13 nM [9]: 6%
- % of Normalized, TF/FVIIa/FX complex assay, Ab 6.25 nM [9]: 8.3%
- % of Normalized, TF/FVIIa/FX complex assay, Ab 12.5 nM [9]: 10.3%
- % of Normalized, TF/FVIIa/FX complex assay, Ab 25 nM [9]: 43.7%
- % of Normalized, TF/FVIIa/FX complex assay, Ab 50 nM [9]: 80.3%
- % of Normalized, TF/FVIIa/FX complex assay, Ab 100 nM [9]: 99.8%
- A405, TF/FVIIa/FX complex assay (FX 5 nM), Ab 1.56 nM [10]: 0.05
- A405, TF/FVIIa/FX complex assay (FX 5 nM), Ab 3.13 nM [10]: 0.048
- A405, TF/FVIIa/FX complex assay (FX 5 nM), Ab 6.25 nM [10]: 0.056
- A405, TF/FVIIa/FX complex assay (FX 5 nM), Ab 12.5 nM [10]: 0.079
- A405, TF/FVIIa/FX complex assay (FX 5 nM), Ab 25 nM [10]: 0.216
- A405, TF/FVIIa/FX complex assay (FX 5 nM), Ab 50 nM [10]: 0.652
B1: clone 1023 (antibody, V domains shown)
VH: EVQLVESGGGLVKPGGSLRLSCAASGFTFSSYAMNWVRQAPGKGLEWVGTITTGGSYTYYADSVDGRFTISRDNAKNSLYLQMNSLRAEDTAVYYCARQDGNFLMDYWGQGTLVTVSS
VL: DVVMTQTPLSLPVTLGQPASISCKSSQSLLDIDGKTYLNWLQQRPGQSPKRLIYLVSKLDSGVPDRFTGSGSGTDFTLKISRVEAEDVGVYYCWQGTHFPFTFGQGTKVEIKR
notes: scFv on yeast at selection; human IgG4/kappa IgG as purified
